Test results taken from patent publication US11912794B2, “Modulation of structured polypeptide specificity” (BicycleRD Limited, priority 2011, dated 2024).
Ends that are not written are not given here.

Molecular target: T1, Biotinylated hPK (Homo sapiens, UniProt P03952)
T1 construct: IHPKA, from human plasma; purchased Innovative Research, Novi, MI, USA IHPKA; host or cells: human plasma
Test: Phage selections, abundance of sequences in selection outputs
Format: binding
Conditions: for Frequency (relative abundance in the total selection outputs): randomised WPAR motif at positions 2, 3, 4 & 5 within the 06-34-03 sequence
Experimental: Glycerol stocks of phage libraries were diluted to OD600=0.1 in 500 ml 2YT/chloramphenicol (30 μg/ml) cultures and phage were produced at 30° C. over night (15-16 hrs). Phage were purified and chemically modified as described in Heinis, et al., Nat Chem Biol 2009, 5 (7), 502-7 Biotinylated hPK (3 μg) (IHPKA, from human plasma, Innovative Research, Novi, MI, USA) was incubated with 50 μl pre-washed magnetic streptavidin beads (Dynal, M-280 from Invitrogen, Paisley, UK) for 10 minutes at RT. […] Blocked beads were then mixed with the blocked chemically modified phage and incubated for 30 minutes on a rotating wheel at RT. Beads were washed 8 times with washing buffer containing 0.1% Tween 20 and twice with washing buffer before incubation with 100 μl of 50 mM glycine, pH 2.2 for 5 minutes. Eluted phage were transferred to 50 μl of 1 M Tris-Cl, pH 8 for neutralization, incubated with 30 ml TG1 cells at OD600=0.4 for 90 minutes at 37° C. and the cells were plated on large 2YT/chloramphenicol plates. One or two additional rounds of panning were performed using the same procedures. In the second round of selection, neutravidin-coated magnetic beads were used to prevent the enrichment of streptavidin-specific peptides. The neutravidin beads were prepared by reacting 0.8 mg neutravidin (Pierce, Rockford, IL, USA) with 0.5 ml tosyl-activated magnetic beads (Dynal, M-280 from Invitrogen, Paisley, UK) according to the supplier's instructions.
The WPAR (SEQ ID NO: 18) motif identified from Example 1 was analysed in the context of the 06-34-03 peptide, in order to identify alternatives or improvements to the WPAR (SEQ ID NO: 18) motif. A library was constructed where positions 1, 6, 7, 8, 9 &10 of 06-34-03 were fixed and positions 2, 3, 4 & 5 were randomised (see ‘Randomisation of peptide domains—Library construction’ in Methods above). Selections against human plasma Kallikrein were performed at a variety of stringencies (see Phage selections' in Methods above). All output sequences were identified and analysed for target binding (see ‘Randomisation of peptide domains—Assay of binding of individual clones’ in Methods above). Table 17 lists each unique sequence, its relative abundance in the selection output (frequency), and a rank number according to target binding strength.

[1] = 2nd stringency from High (1st value of cell)
[2] = 3rd stringency from High (2nd value of cell)
[3] = 4th stringency from High (3rd value of cell)
[4] = 5th stringency from High (4th value of cell)

T1 sequence (P03952 20-638): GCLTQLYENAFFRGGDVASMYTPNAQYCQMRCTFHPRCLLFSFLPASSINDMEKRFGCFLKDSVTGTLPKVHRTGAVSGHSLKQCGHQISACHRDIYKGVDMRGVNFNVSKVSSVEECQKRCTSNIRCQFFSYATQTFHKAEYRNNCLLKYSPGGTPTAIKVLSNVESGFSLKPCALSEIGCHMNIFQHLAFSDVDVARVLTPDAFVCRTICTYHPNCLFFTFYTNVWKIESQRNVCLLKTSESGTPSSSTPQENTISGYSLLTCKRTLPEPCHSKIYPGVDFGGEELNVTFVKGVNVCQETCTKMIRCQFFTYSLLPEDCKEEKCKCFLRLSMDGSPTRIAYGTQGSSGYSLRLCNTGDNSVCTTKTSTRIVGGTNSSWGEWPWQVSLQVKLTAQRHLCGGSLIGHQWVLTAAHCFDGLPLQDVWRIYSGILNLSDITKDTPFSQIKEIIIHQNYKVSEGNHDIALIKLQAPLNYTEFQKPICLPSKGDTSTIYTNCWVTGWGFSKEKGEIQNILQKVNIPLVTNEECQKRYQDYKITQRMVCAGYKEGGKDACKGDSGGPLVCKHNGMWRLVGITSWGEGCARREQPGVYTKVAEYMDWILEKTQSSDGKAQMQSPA

“SEQ ID NO: 100 (CSWPYKCTHQDLC; Synthetic sequence Kallikrein binder identified from selections using a randomised WPAR motif at positions 2, 3, 4 & 5 within the 06-34-03 sequence of PCT/EP2012/069898 (SEQ ID NO 58))” was tested, and the “Frequency (relative abundance in the total selection outputs)” value was 1.
“SEQ ID NO: 101 (CSFLYKCTHQDLC; Synthetic sequence Kallikrein binder identified from selections using a randomised WPAR motif at positions 2, 3, 4 & 5 within the 06-34-03 sequence of PCT/EP2012/069898 (SEQ ID NO 58))” was tested, and the “Frequency (relative abundance in the total selection outputs)” value was 2.
For “SEQ ID NO: 102 (CSLPIRCTHQDLC; Synthetic sequence Kallikrein binder identified from selections using a randomised WPAR motif at positions 2, 3, 4 & 5 within the 06-34-03 sequence of PCT/EP2012/069898 (SEQ ID NO 58))”, the “Frequency (relative abundance in the total selection outputs)” value was 1.
For “SEQ ID NO: 103 (CSMPYRCTHQDLC; Synthetic sequence Kallikrein binder identified from selections using a randomised WPAR motif at positions 2, 3, 4 & 5 within the 06-34-03 sequence of PCT/EP2012/069898 (SEQ ID NO 58))”, the “Frequency (relative abundance in the total selection outputs)” value was 2.
“SEQ ID NO: 104 (CSIPFKCTHQDLC; Synthetic sequence Kallikrein binder identified from selections using a randomised WPAR motif at positions 2, 3, 4 & 5 within the 06-34-03 sequence of PCT/EP2012/069898 (SEQ ID NO 58))” was tested, and the “Frequency (relative abundance in the total selection outputs)” value was 1.
With “SEQ ID NO: 105 (CSYPWRCTHQDLC; Synthetic sequence Kallikrein binder identified from selections using a randomised WPAR motif at positions 2, 3, 4 & 5 within the 06-34-03 sequence of PCT/EP2012/069898 (SEQ ID NO 58))” the “Frequency (relative abundance in the total selection outputs)” value was 1.
In the case of “SEQ ID NO: 106 (CSFPFWCTHQDLC; Synthetic sequence Kallikrein binder identified from selections using a randomised WPAR motif at positions 2, 3, 4 & 5 within the 06-34-03 sequence of PCT/EP2012/069898 (SEQ ID NO 58))”, the “Frequency (relative abundance in the total selection outputs)” value was 1.
In the case of “SEQ ID NO: 107 (CSFSYKCTHQDLC; Synthetic sequence Kallikrein binder identified from selections using a randomised WPAR motif at positions 2, 3, 4 & 5 within the 06-34-03 sequence of PCT/EP2012/069898 (SEQ ID NO 58))”, the “Frequency (relative abundance in the total selection outputs)” value was 1.
With “SEQ ID NO: 108 (CSWSYRCTHQDLC; Synthetic sequence Kallikrein binder identified from selections using a randomised WPAR motif at positions 2, 3, 4 & 5 within the 06-34-03 sequence of PCT/EP2012/069898 (SEQ ID NO 58))” the “Frequency (relative abundance in the total selection outputs)” value was 1.
“SEQ ID NO: 109 (CSFMYKCTHQDLC; Synthetic sequence Kallikrein binder identified from selections using a randomised WPAR motif at positions 2, 3, 4 & 5 within the 06-34-03 sequence of PCT/EP2012/069898 (SEQ ID NO 58))” was tested, and the “Frequency (relative abundance in the total selection outputs)” value was 1.
For “SEQ ID NO: 110 (CSQVVGCTHQDLC; Synthetic sequence Kallikrein binder identified from selections using a randomised WPAR motif at positions 2, 3, 4 & 5 within the 06-34-03 sequence of PCT/EP2012/069898 (SEQ ID NO 58))”, the “Frequency (relative abundance in the total selection outputs)” value was 1.
“SEQ ID NO: 111 (CRWPYHCTHQDLC; Synthetic sequence Kallikrein binder identified from selections using a randomised WPAR motif at positions 2, 3, 4 & 5 within the 06-34-03 sequence of PCT/EP2012/069898 (SEQ ID NO 58))” was tested, and the “Frequency (relative abundance in the total selection outputs)” value was 1.
For “SEQ ID NO: 112 (CSLFDHCTHQDLC; Synthetic sequence Kallikrein binder identified from selections using a randomised WPAR motif at positions 2, 3, 4 & 5 within the 06-34-03 sequence of PCT/EP2012/069898 (SEQ ID NO 58))”, the “Frequency (relative abundance in the total selection outputs)” value was 1.
With “SEQ ID NO: 113 (CSHRRWCTHQDLC; Synthetic sequence Kallikrein binder identified from selections using a randomised WPAR motif at positions 2, 3, 4 & 5 within the 06-34-03 sequence of PCT/EP2012/069898 (SEQ ID NO 58))” the “Frequency (relative abundance in the total selection outputs)” value was 1.
With “SEQ ID NO: 114 (CSWQARCTHQDLC; Synthetic sequence Kallikrein binder identified from selections using a randomised WPAR motif at positions 2, 3, 4 & 5 within the 06-34-03 sequence of PCT/EP2012/069898 (SEQ ID NO 58))” the “Frequency (relative abundance in the total selection outputs)” value was 1.
“WPFR: phage clone: WPFR at positions 2-5 within the 06-34-03 sequence, TBMB-cyclised (also: TBMB-cyclised within the 06-34-03 context, the cysteines lie outside this motif)” was tested, and the “Relative abundance of motif in selection output” value [1] was 3%, the “Relative abundance of motif in selection output” value [2] was 0% and the “Relative abundance of motif in selection output” value [3] was 0%. The “Relative abundance of motif in selection output” value [4] was 6%, the “Relative abundance of motif in selection output” value (stringency High) was 7% and the “Relative abundance of motif in selection output” value (stringency LOW) was 4%.
“WPSR: phage clone: WPSR at positions 2-5 within the 06-34-03 sequence, TBMB-cyclised (also: TBMB-cyclised within the 06-34-03 context, the cysteines lie outside this motif)” was tested, and the “Relative abundance of motif in selection output” value [1] was 31%, the “Relative abundance of motif in selection output” value [2] was 41% and the “Relative abundance of motif in selection output” value [3] was 26%. The “Relative abundance of motif in selection output” value [4] was 23%, the “Relative abundance of motif in selection output” value (stringency High) was 34% and the “Relative abundance of motif in selection output” value (stringency LOW) was 11%.
In the case of “WPYR: phage clone: WPYR at positions 2-5 within the 06-34-03 sequence, TBMB-cyclised (also: TBMB-cyclised within the 06-34-03 context, the cysteines lie outside this motif)”, the “Relative abundance of motif in selection output” value [1] was 3%, the “Relative abundance of motif in selection output” value [2] was 0% and the “Relative abundance of motif in selection output” value [3] was 4%. For the same substance, the “Relative abundance of motif in selection output” value [4] was 0%, the “Relative abundance of motif in selection output” value (stringency High) was 3% and the “Relative abundance of motif in selection output” value (stringency LOW) was 0%.
